Consider three molecules from patent publication US20120316071A1 (published 2012).

In experiment [1] the target is T1, rHuman P-Cadherin/Fc Chimera, CF (R&D Systems Cat#861-PC) (human, UniProt P22223 108-654).
T1 construct: Bought recombinant protein; Fc part of the bought chimera not given
Nature of the experiment: ECL multispot (MSD) assay, spotted antigen; Fab 20.00 (head prints uM).

The target in experiment [2] is T2, rHuman CD44/Fc Chimera, CF (R&D Systems Cat#3660-CD) (human, UniProt P16070 21-220).
T2 construct: Bought recombinant protein; Fc part of the bought chimera not given
The experiment is described as above.

The target in experiment [3] is T3, rHuman Notch-1/Fc Chimera, CF (R&D Systems Cat#3647-TK) (human, UniProt P46531 19-526).
T3 construct: Bought recombinant protein; Fc part of the bought chimera not given
Described as above.

The target of experiment [4] is T4, Recombinant Human DLL4 (R&D Systems Cat#1506-D4/CF) (human, UniProt Q9NR61 27-524).
T4 construct: Bought recombinant protein; also called delta-like protein 4
Described as above.

For experiment [5], the target named is T5, rHuman Erythropoietin R/Fc Chimera, CF (R&D Systems Cat#963-ER) (human, UniProt P19235 25-250).
T5 construct: Bought recombinant protein; also called EPO R; EPO R/Fc; Fc part of the bought chimera not given
T5 sequence (looked up): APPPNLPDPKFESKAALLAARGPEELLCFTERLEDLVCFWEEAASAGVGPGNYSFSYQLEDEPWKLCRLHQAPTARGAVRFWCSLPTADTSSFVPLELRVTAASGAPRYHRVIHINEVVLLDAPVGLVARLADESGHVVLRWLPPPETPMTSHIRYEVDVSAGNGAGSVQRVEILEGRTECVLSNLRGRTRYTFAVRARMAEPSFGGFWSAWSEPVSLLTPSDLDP
The description is as above.

Experiment [6] concerns the target T6, rHuman HGF R/c-MET/Fc Chimera, CF (R&D Systems Cat#358-MT/CF) (human, UniProt P08581 25-932).
T6 construct: Bought recombinant protein; also called HGF R/Fc; Fc part of the bought chimera not given
The experiment is described as above.

Experiment [7] concerns the target T7, rHuman ErbB2/Fc Chimera, CF (R&D Systems Cat#1129-ER) (human, UniProt P04626 23-652).
T7 construct: Bought recombinant protein; Fc part of the bought chimera not given
Nature of the experiment: ECL Multispot (MSD), antigen spotted; Fab 50 (µM); blank 386.

Experiment [8] deals with T8, rHuman P-Cadherin/Fc Chimera, CF (R&D Systems Cat#861-PC) (human, UniProt P22223 108-654).
T8 construct: Bought recombinant protein; Fc part of the bought chimera not given
The description is as above.

For experiment [9], the target named is T9, rHuman EGF R/Fc Chimera, CF (R&D Systems Cat#344-ER) (human, UniProt P00533 25-645).
T9 construct: Bought recombinant protein; Fc part of the bought chimera not given
Described as above.

The target of experiment [10] is T10, rHuman CD44/Fc Chimera, CF (R&D Systems Cat#3660-CD) (human, UniProt P16070 21-220).
T10 construct: Bought recombinant protein; Fc part of the bought chimera not given
The experiment is described as above.

Experiment [11] addresses T11, rHuman HGF R/c-MET/Fc Chimera, CF (R&D Systems Cat#358-MT/CF) (human, UniProt P08581 25-932).
T11 construct: Bought recombinant protein; also called HGF R/Fc; Fc part of the bought chimera not given
The description is as above.

The target in experiment [12] is T12, rHuman EGF R/Fc Chimera, CF (R&D Systems Cat#344-ER) (human, UniProt P00533 25-645).
T12 construct: Bought reagent; also called epidermal growth factor receptor; Fc part of the bought chimera not given
Nature of the experiment: MSD Multispot ECL, antigen spotted on plate, Fab 130 nM; blank spot 1153.

Experiment [13] addresses T13, Recombinant Human DLL4 (R&D Systems Cat#1506-D4/CF) (human, UniProt Q9NR61 27-529).
T13 construct: Bought recombinant protein; also called rHuman DLL4; delta-like protein 4
Described as above.

For experiment [14], the target named is T14, rHuman Notch-1/Fc Chimera, CF (R&D Systems Cat#3647-TK) (human, UniProt P46531 19-526).
T14 construct: Bought reagent; Fc part of the bought chimera not given
The description is as above.

Experiment [15] addresses T15, rHuman IGF-1 sR, (IGF-1 sR), CF (R&D Systems Cat#391-GR) (human, UniProt P08069 31-932).
T15 construct: Bought soluble receptor; also called insulin-like growth factor-1 soluble receptor
The description is as above.

Experiment [16] has as its target T16, rHuman HGF R/c-MET/Fc Chimera, CF (R&D Systems Cat#358-MT/CF) (human, UniProt P08581 25-932).
T16 construct: Bought reagent; also called HGF R/Fc; hepatocyte growth factor receptor; Fc part of the bought chimera not given
Described as above.

In experiment [17] the target is T17, rHuman Erythropoietin R/Fc Chimera, CF (R&D Systems Cat#963-ER) (human, UniProt P19235 25-250).
T17 construct: Bought reagent; also called EPO R/Fc; EPO R; Fc part of the bought chimera not given
T17 sequence (looked up): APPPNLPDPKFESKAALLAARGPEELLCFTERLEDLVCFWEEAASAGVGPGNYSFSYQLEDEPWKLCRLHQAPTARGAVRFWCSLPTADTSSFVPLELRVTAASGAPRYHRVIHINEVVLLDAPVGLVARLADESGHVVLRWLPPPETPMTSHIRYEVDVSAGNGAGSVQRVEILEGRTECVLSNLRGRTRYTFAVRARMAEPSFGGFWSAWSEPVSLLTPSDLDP
The experiment is described as above.

Experiment [18] has as its target T18, rHuman CD44/Fc Chimera, CF (R&D Systems Cat#3660-CD) (human, UniProt P16070 21-220).
T18 construct: Bought reagent; Fc part of the bought chimera not given
Described as above.

The target of experiment [19] is T19, rHuman ErbB2/Fc Chimera, CF (R&D Systems Cat#1129-ER) (human, UniProt P04626 23-652).
T19 construct: Bought reagent; also called human epidermal growth factor 2 receptor; Fc part of the bought chimera not given
The experiment is described as above.

B1: Fab VH5-51_IGHD5-18*01>3_IGHJ4*01 G100K/G104T & V3-4_IGLJ1*01 (Fab, V domains shown)
VH: EVQLVQSGAEVKKPGESLKISCKGSGYSFTSYWIGWVRQMPGKGLEWMGIIYPGDSDTRYSPSFQGQVTISADKSISTAYLQWSSLKASDTAMYYCARRKYSYTYDYFDYWGQGTLVTVSS
VL: QTVVTQEPSFSVSPGGTVTLTCGLSSGSVSTSYYPSWYQQTPGQAPRTLIYSTNTRSSGVPDRFSGSILGNKAALTITGAQADDESDYYCVLYMGSGISYVFGTGTKVTVL
notes: Tested as a Fab; The constant parts are the same as for the parent Fab (CH1 with His6/Flag tags, lambda CL); also called KT double mutant; H:KT
For B1, the ECL signal/noise ratio in experiment [1] is 1.1; in experiment [2], 1.1; in experiment [3], 1.2; in experiment [4] it was 157; in [5], 1.1; in experiment [6], 0.9.

B2: Fab VH1-46_IGHD6-6*01_IGHJ1*01 S102A/S103P/S104F (APF) & L6_IGKJ1*01 (Fab, V domains shown)
VH: QVQLVQSGAEVKKPGASVKVSCKASGYTFTSYYMHWVRQAPGQGLEWMGIINPSGGSTSYAQKFQGRVTMTRDTSTSTVYMELSSLRSEDTAVYYCAREEYAPFSAEYFQHWGQGTLVTVSS
VL: not shown
notes: Tested as a Fab made in E. coli: VH cloned in Plasmid A (CH1 constant region, His6 and Flag tags), VL in Plasmid C (kappa constant region); also called H:APF & L:wt; APF triple mutant
On to B2, for which the ECL signal stood at 672 in experiment [7]; 652 in experiment [8]; 585 in [9]; 557 in experiment [10]; 525 in experiment [11].

B3: Fab VH1-8_IGHD2-2*01_IGHJ6*01 & L12_IGKJ1*01 (Fab, V domains shown)
VH: QVQLVQSGAEVKKPGASVKVSCKASGYTFTSYDINWVRQATGQGLEWMGWMNPNSGNTGYAQKFQGRVTMTRNTSISTAYMELSSLRSEDTAVYYCARGGYCSSTSCYADYYYYYGMDVWGQGTTVTVSS
VL: not shown
For B3, the ECL signal in experiment [12] stood at 1750; in experiment [13] it was 7740; in [14], 1760; in [15], 1970; in experiment [16], 1880; in experiment [17] it was 2150. Besides, the ECL signal in experiment [18] turned out to be 1750; in [19], 1530.
